# ± gives the standard deviation of the averaged measurements.
# Assay: total protein half-life in vivo (active degradation + dilution); higher = more stable protein
# [1] = E. coli NCM3722 delta-clpP delta-lon delta-hslV, growth: N-lim chemostat, doubling time 6 h
# [2] = E. coli NCM3722 delta-clpP, growth: N-lim chemostat, doubling time 6 h
# [3] = E. coli NCM3722 delta-hslV, growth: N-lim chemostat, doubling time 6 h
# [4] = E. coli NCM3722 delta-lon, growth: N-lim chemostat, doubling time 6 h
# [5] = E. coli NCM3722 delta-smpB, growth: N-lim chemostat, doubling time 6 h
# [6] = wild type E. coli NCM3722, growth: C-lim chemostat, doubling time 3 h
# [7] = wild type E. coli NCM3722, growth: C-lim chemostat, doubling time 6 h
# [8] = wild type E. coli NCM3722, growth: C-lim chemostat, doubling time 12 h
# [9] = wild type E. coli NCM3722, growth: P-lim chemostat, doubling time 12 h
# [10] = wild type E. coli NCM3722, growth: N-lim chemostat, doubling time 6 h
# [11] = wild type E. coli NCM3722, growth: P-lim chemostat, doubling time 6 h
# [12] = wild type E. coli NCM3722, growth: N-lim chemostat, doubling time 12 h
Sequence,total protein half-life in vivo [1] [h],total protein half-life in vivo [2] [h],total protein half-life in vivo [3] [h],total protein half-life in vivo [4] [h],total protein half-life in vivo [5] [h],total protein half-life in vivo [6] [h],total protein half-life in vivo [7] [h],total protein half-life in vivo [8] [h],total protein half-life in vivo [9] [h],total protein half-life in vivo [10] [h],total protein half-life in vivo [11] [h],total protein half-life in vivo [12] [h]
MKTLATIGDNCVDIYPQLNKAFSGGNAVNVAVYCTRYGIQPGCITWVGDDDYGTKLKQDLARMGVDISHVHTKHGVTAQTQVELHDNDRVFGDYTEGVMADFALSEEDYAWLAQYDIVHAAIWGHAEDAFPQLHAAGKLTAFDFSDKWDSPLWQTLVPHLDFAFASAPQEDETLRLKMKAIVARGAGTVIVTLGENGSIAWDGAQFWRQAPEPVTVIDTMGAGDSFIAGFLCGWSAGMTLPQAIAQGTACAAKTIQYHGAW,5.37,3.97,4.2 ± 0.26,> 8,3.48,1.68,3.27,7.21 ± 0.47,–,–,–,–
MKTSDNERIKYEITGQAVLQILRMKINFSLQTLIKQLLVMKSAEEDAFRRDLIDSIIRDFSNSDSGGPNRRTATADNKSMFNGKKINRIH,–,–,–,–,–,–,–,–,3.79,–,–,–
MKTSLFKSLYFQVLTAIAIGILLGHFYPEIGEQMKPLGDGFVKLIKMIIAPVIFCTVVTGIAGMESMKAVGRTGAVALLYFEIVSTIALIIGLIIVNVVQPGAGMNVDPATLDAKAVAVYADQAKDQGIVAFIMDVIPASVIGAFASGNILQVLLFAVLFGFALHRLGSKGQLIFNVIESFSQVIFGIINMIMRLAPIGAFGAMAFTIGKYGVGTLVQLGQLIICFYITCILFVVLVLGSIAKATGFSIFKFIRYIREELLIVLGTSSSESALPRMLDKMEKLGCRKSVVGLVIPTGYSFNLDGTSIYLTMAAVFIAQATNSQMDIVHQITLLIVLLLSSKGAAGVTGSGFIVLAATLSAVGHLPVAGLALILGIDRFMSEARALTNLVGNGVATIVVAKWVKELDHKKLDDVLNNRAPDGKTHELSS [P0A830],–,–,3.58,–,4.23,–,5.59 ± 0.43,10.7 ± 0.59,8.47,5.77,5.05,–
MKTTAKLSFMMFVEWFIWGAWFVPLWLWLSKSGFSAGEIGWSYACTAIAAILSPILVGSITDRFFSAQKVLAVLMFAGALLMYFAAQQTTFAGFFPLLLAYSLTYMPTIALTNSIAFANVPDVERDFPRIRVMGTIGWIASGLACGFLPQILGYADISPTNIPLLITAGSSALLGVFAFFLPDTPPKSTGKMDIKVMLGLDALILLRDKNFLVFFFCSFLFAMPLAFYYIFANGYLTEVGMKNATGWMTLGQFSEIFFMLALPFFTKRFGIKKVLLLGLVTAAIRYGFFIYGSADEYFTYALLFLGILLHGVSYDFYYVTAYIYVDKKAPVHMRTAAQGLITLCCQGFGSLLGYRLGGVMMEKMFAYQEPVNGLTFNWSGMWTFGAVMIAIIAVLFMIFFRESDNEITAIKVDDRDIALTQGEVK,–,–,–,–,–,–,4.97 ± 0.24,9.17,–,–,–,–
MKTVRESTTLYNFLGSHNPYWRLTESSDVLRFSTTETTEPDRTLQLSAEQAARIREMTVITSSLMMSLTVDESDLSVHLVGRKINKREWAGNASAWHDTPAVARDLSHGLSFAEQVVSEAHSAIVILDSRGNIQRFNRLCEDYTGLKEHDVIGQSVFKLFMSRREAAASRRNNRVFFRSGNAYEVELWIPTCKGQRLFLFRNKFVHSGSGKNEIFLICSGTDITEERRAQERLRILANTDSITGLPNRNAMQDLIDHAINHADNNKVGVVYLDLDNFKKVNDAYGHLFGDQLLRDVSLAILSCLEHDQVLARPGGDEFLVLASNTSQSALEAMASRILTRLRLPFRIGLIEVYTSCSVGIALSPEHGSDSTAIIRHADTAMYTAKEGGRGQFCVFTPEMNQRVFEYLWLDTNLRKALENDQLVIHYQPKITWRGEVRSLEALVRWQSPERGLIPPLDFISYAEESGLIVPLGRWVILDVVRQVAKWRDKGINLRVAVNISARQLADQTIFTALKQVLQELNFEYCPIDVELTESCLIENDELALSVIQQFSQLGAQVHLDDFGTGYSSLSQLARFPIDAIKLDQVFVRDIHKQPVSQSLVRAIVAVAQALNLQVIAEGVESAKEDAFLTKNGINERQGFLFAKPMPAVAFERWYKRYLKRA,6.59 ± 1.2,2.14,2.36 ± 0.18,3.107 ± 0.019,1.94 ± 0.029,1.58 ± 0.59,4.6 ± 2.3,5.35,–,3.27 ± 0.56,–,3.63
MKTVTVKDLVIGTGAPKIIVSLMAKDIASVKSEALAYREADFDILEWRVDHYADLSNVESVMAAAKILRETMPEKPLLFTFRSAKEGGEQAISTEAYIALNRAAIDSGLVDMIDLELFTGDDQVKETVAYAHAHDVKVVMSNHDFHKTPEAEEIIARLRKMQSFDADIPKIALMPQSTSDVLTLLAATLEMQEQYADRPIITMSMAKTGVISRLAGEVFGSAATFGAVKKASAPGQISVNDLRTVLTILHQA,3.99 ± 0.25,4.15 ± 0.66,3.51 ± 0.0088,4.3 ± 0.52,3.62 ± 0.46,> 4,5.56 ± 1,9.4 ± 0.9,11 ± 0.46,3.68 ± 0.14,5.38 ± 0.21,5.5 ± 0.19
MKTVVFAYHDMGCLGIEALLAAGYEISAIFTHTDNPGEKAFYGSVARLAAERGIPVYAPDNVNHPLWVERIAQLSPDVIFSFYYRHLIYDEILQLAPAGAFNLHGSLLPKYRGRAPLNWVLVNGETETGVTLHRMVKRADAGAIVAQLRIAIAPDDIAITLHHKLCHAARQLLEQTLPAIKHGNILEIAQRENEATCFGRRTPDDSFLEWHKPASVLHNMVRAVADPWPGAFSYVGNQKFTVWSSRVHPHASKAQPGSVISVAPLLIACGDGALEIVTGQAGDGITMQGSQLAQTLGLVQGSRLNSQPACTARRRTRVLILGVNGFIGNHLTERLLREDHYEVYGLDIGSDAISRFLNHPHFHFVEGDISIHSEWIEYHVKKCDVVLPLVAIATPIEYTRNPLRVFELDFEENLRIIRYCVKYRKRIIFPSTSEVYGMCSDKYFDEDHSNLIVGPVNKPRWIYSVSKQLLDRVIWAYGEKEGLQFTLFRPFNWMGPRLDNLNAARIGSSRAITQLILNLVEGSPIKLIDGGKQKRCFTDIRDGIEALYRIIENAGNRCDGEIINIGNPENEASIEELGEMLLASFEKHPLRHHFPPFAGFRVVESSSYYGKGYQDVEHRKPSIRNAHRCLDWEPKIDMQETIDETLDFFLRTVDLTDKPS,5.15 ± 0.03,3.11 ± 0.24,2.84 ± 0.19,3.86 ± 0.1,3.13 ± 0.3,–,4.8816 ± 0.00064,10.4 ± 1.2,11.65 ± 0.019,2.93 ± 0.43,5.82 ± 0.22,4.61 ± 0.62
MKVAVLGAAGGIGQALALLLKTQLPSGSELSLYDIAPVTPGVAVDLSHIPTAVKIKGFSGEDATPALEGADVVLISAGVARKPGMDRSDLFNVNAGIVKNLVQQVAKTCPKACIGIITNPVNTTVAIAAEVLKKAGVYDKNKLFGVTTLDIIRSNTFVAELKGKQPGEVEVPVIGGHSGVTILPLLSQVPGVSFTEQEVADLTKRIQNAGTEVVEAKAGGGSATLSMGQAAARFGLSLVRALQGEQGVVECAYVEGDGQYARFFSQPLLLGKNGVEERKSIGTLSAFEQNALEGMLDTLKKDIALGEEFVNK,4.53 ± 0.53,3.92 ± 0.44,3.803 ± 0.013,4.42 ± 0.25,3.84 ± 0.068,3.039 ± 0.028,5.65 ± 0.34,9.69 ± 0.74,11.8 ± 0.51,3.98 ± 0.16,5.94 ± 0.074,6.2 ± 0.2
MKVIIVEDEFLAQQELSWLIKEHSQMEIVGTFDDGLDVLKFLQHNRVDAIFLDINIPSLDGVLLAQNISQFAHKPFIVFITAWKEHAVEAFELEAFDYILKPYQESRITGMLQKLEAAWQQQQTSSTPAATVTRENDTINLVKDERIIVTPINDIYYAEAHEKMTFVYTRRESYVMPMNITEFCSKLPPSHFFRCHRSFCVNLNKIREIEPWFNNTYILRLKDLDFEVPVSRSKVKEFRQLMHL [P0AE39],5.23 ± 0.21,4.51 ± 0.32,4.019 ± 0.0042,4.73 ± 0.72,4.01 ± 0.061,2.8 ± 0.42,6 ± 0.71,8.85 ± 0.64,9.66 ± 0.46,4.44 ± 0.42,4.93 ± 0.72,7.31 ± 0.66
MKVLIVESEFLHQDTWVGNAVERLADALSQQNVTVIKSTSFDDGFAILSSNEAIDCLMFSYQMEHPDEHQNVRQLIGKLHERQQNVPVFLLGDREKALAAMDRDLLELVDEFAWILEDTADFIAGRAVAAMTRYRQQLLPPLFSALMKYSDIHEYSWAAPGHQGGVGFTKTPAGRFYHDYYGENLFRTDMGIERTSLGSLLDHTGAFGESEKYAARVFGADRSWSVVVGTSGSNRTIMQACMTDNDVVVVDRNCHKSIEQGLMLTGAKPVYMVPSRNRYGIIGPIYPQEMQPETLQKKISESPLTKDKAGQKPSYCVVTNCTYDGVCYNAKEAQDLLEKTSDRLHFDEAWYGYARFNPIYADHYAMRGEPGDHNGPTVFATHSTHKLLNALSQASYIHVREGRGAINFSRFNQAYMMHATTSPLYAICASNDVAVSMMDGNSGLSLTQEVIDEAVDFRQAMARLYKEFTADGSWFFKPWNKEVVTDPQTGKTYDFADAPTKLLTTVQDCWVMHPGESWHGFKDIPDNWSMLDPIKVSILAPGMGEDGELEETGVPAALVTAWLGRHGIVPTRTTDFQIMFLFSMGVTRGKWGTLVNTLCSFKRHYDANTPLAQVMPELVEQYPDTYANMGIHDLGDTMFAWLKENNPGARLNEAYSGLPVAEVTPREAYNAIVDNNVELVSIENLPGRIAANSVIPYPPGIPMLLSGENFGDKNSPQVSYLRSLQSWDHHFPGFEHETEGTEIIDGIYHVMCVKA,5.82 ± 0.47,4.96 ± 1.1,6.09 ± 0.29,5.74 ± 0.22,5.38 ± 0.21,3.193 ± 0.023,5.14 ± 0.23,11.5 ± 0.12,11.5 ± 0.15,6.03 ± 0.28,6.14 ± 0.3,12.1 ± 2

# Reference: the supplement of paper PMC11246515
